Test results reported in PMC12631112.

Experiments:
[1] = target: serum IgM of WM patient 11 (human (endogenous in serum)); assay: SEC + ELISA; serum diluted in PBS fractionated by HP-SEC on Superose 6 increase 10/300 GL in PBS, 0.5 mL/min; IgM, IgM-J-chain and IgM-CD5L measured by ELISA in each 250 µL fraction
[2] = target: IgM of patients with IgM MGUS and WM (n = 29), IgM-CD5L ELISA; assay: ELISA; IgM-CD5L ELISA: anti-human IgM (MH-15-1) coated captures IgM from serum diluted in HPE buffer, room temperature; IgM-bound CD5L detected with a-CD5L-HRP (clone 5B5, 0.5 µg/mL); compared to total IgM
[3] = target: serum IgM of healthy donors (mu heavy and light chains) (human (endogenous in serum)); assay: as above

percent of IgM molecules that contain CD5L [1]: 10% | ratio between IgM-CD5L complexes and total IgM [2]: 0.1 | ratio between IgM-CD5L complexes and total IgM [3]: 1
B1: CD5-Like (CD5L) (natural protein)
chain: SPSGVRLVGGLHRCEGRVEVEQKGQWGTVCDDGWDIKDVAVLCRELGCGAASGTPSGILYEPPAEKEQKVLIQSVSCTGTEDTLAQCEQEEVYDCSHDEDAGASCENPESSFSPVPEGVRLADGPGHCKGRVEVKHQNQWYTVCQTGWSLRAAKVVCRQLGCGRAVLTQKRCNKHAYGRKPIWLSQMSCSGREATLQDCPSGPWGKNTCNHDEDTWVECEDPFDLRLVGGDNLCSGRLEVLHKGVWGSVCDDNWGEKEDQVVCKQLGCGKSLSPSFRDRKCYGPGVGRIWLDNVRCSGEEQSLEQCQHRFWGFHDCTHQEDVAVICSG
